T1: human neuromedin U receptor 1 (human, UniProt Q9HB89 24-426)
T1 sequence (looked up): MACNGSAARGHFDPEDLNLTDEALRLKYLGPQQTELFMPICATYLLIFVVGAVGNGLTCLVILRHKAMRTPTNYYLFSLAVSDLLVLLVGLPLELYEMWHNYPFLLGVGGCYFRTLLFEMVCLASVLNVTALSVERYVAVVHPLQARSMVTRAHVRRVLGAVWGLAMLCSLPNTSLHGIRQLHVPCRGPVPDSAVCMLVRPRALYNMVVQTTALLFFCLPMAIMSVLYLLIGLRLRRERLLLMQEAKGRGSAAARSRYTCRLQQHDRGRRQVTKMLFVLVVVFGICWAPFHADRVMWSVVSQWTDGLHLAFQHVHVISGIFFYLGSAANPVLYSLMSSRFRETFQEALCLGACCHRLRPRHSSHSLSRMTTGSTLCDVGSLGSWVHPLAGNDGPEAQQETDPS


Molecular target: T1, human neuromedin U receptor 1
Test: cell-based or functional assay

Row | Binder | EC50 (hNMUR1) buffer
1 | EEEEXXXXXXXXXXXXXYFLXXPRG (HELM PEPTIDE1{[O=C(O)CCCCCCCCCCCCCCCCCCC(=O)[*:2]].[gGlu].[gGlu].[gGlu].[gGlu].[Sar].[Sar].[Sar].[Sar].[Sar].[Sar].[Sar].[Sar].[Sar].[Sar].[Sar].[Sar].[O=C(CN1CCN(CCN[*:1])CC1)[*:2]].Y.F.[meL].[Nle].[Dab].P.R.G.[am]}$$$$V2.0; SMILES CCCC[C@H](NC(=O)[C@H](CC(C)C)N(C)C(=O)[C@H](Cc1ccccc1)NC(=O)[C@H](Cc1ccc(O)cc1)NC(=O)CN1CCN(CCNC(=O)CN(C)C(=O)CN(C)C(=O)CN(C)C(=O)CN(C)C(=O)CN(C)C(=O)CN(C)C(=O)CN(C)C(=O)CN(C)C(=O)CN(C)C(=O)CN(C)C(=O)CN(C)C(=O)CN(C)C(=O)CC[C@H](NC(=O)CC[C@H](NC(=O)CC[C@H](NC(=O)CC[C@H](NC(=O)CCCCCCCCCCCCCCCCCCC(=O)O)C(=O)O)C(=O)O)C(=O)O)C(=O)O)CC1)C(=O)N[C@@H](CCN)C(=O)N1CCC[C@H]1C(=O)N[C@@H](CCCNC(=N)N)C(=O)NCC(N)=O) [C20DA-gGlu4-Sar12-AEPipAc-Tyr-Phe-NMeLeu-Nle-Dbu-Pro-Arg-Gly-NH2] | 860 nM
2 | EEEXXXXXXXXXXXXXXXXYFLXXPRG (HELM PEPTIDE1{[O=C(O)CCCCCCCCCCCCCCCCCCC(=O)[*:2]].[gGlu].[gGlu].[gGlu].[Sar].[Sar].[Sar].[Sar].[Sar].[Sar].[Sar].[Sar].[Sar].[Sar].[Sar].[Sar].[Sar].[Sar].[Sar].[O=C(CN1CCN([*:1])CC1)[*:2]].Y.F.[meL].[Nle].[Orn].P.R.G.[am]}$$$$V2.0; SMILES CCCC[C@H](NC(=O)[C@H](CC(C)C)N(C)C(=O)[C@H](Cc1ccccc1)NC(=O)[C@H](Cc1ccc(O)cc1)NC(=O)CN1CCN(C(=O)CN(C)C(=O)CN(C)C(=O)CN(C)C(=O)CN(C)C(=O)CN(C)C(=O)CN(C)C(=O)CN(C)C(=O)CN(C)C(=O)CN(C)C(=O)CN(C)C(=O)CN(C)C(=O)CN(C)C(=O)CN(C)C(=O)CN(C)C(=O)CN(C)C(=O)CC[C@H](NC(=O)CC[C@H](NC(=O)CC[C@H](NC(=O)CCCCCCCCCCCCCCCCCCC(=O)O)C(=O)O)C(=O)O)C(=O)O)CC1)C(=O)N[C@@H](CCCN)C(=O)N1CCC[C@H]1C(=O)N[C@@H](CCCNC(=N)N)C(=O)NCC(N)=O) [C20DA-gGlu3-Sar15-PipAc-Tyr-Phe-NMeLeu-Nle-Orn-Pro-Arg-Gly-NH2] | 470 nM
3 | EEEEXXXXXXXXXXXXXXXXYFLXXARG (HELM PEPTIDE1{[O=C(O)CCCCCCCCCCCCCCCCCCC(=O)[*:2]].[gGlu].[gGlu].[gGlu].[gGlu].[Sar].[Sar].[Sar].[Sar].[Sar].[Sar].[Sar].[Sar].[Sar].[Sar].[Sar].[Sar].[Sar].[Sar].[Sar].[O=C(CN1CCN(CCN[*:1])CC1)[*:2]].Y.F.[meL].[Nle].[Dab].[meA].R.G.[am]}$$$$V2.0; SMILES CCCC[C@H](NC(=O)[C@H](CC(C)C)N(C)C(=O)[C@H](Cc1ccccc1)NC(=O)[C@H](Cc1ccc(O)cc1)NC(=O)CN1CCN(CCNC(=O)CN(C)C(=O)CN(C)C(=O)CN(C)C(=O)CN(C)C(=O)CN(C)C(=O)CN(C)C(=O)CN(C)C(=O)CN(C)C(=O)CN(C)C(=O)CN(C)C(=O)CN(C)C(=O)CN(C)C(=O)CN(C)C(=O)CN(C)C(=O)CN(C)C(=O)CC[C@H](NC(=O)CC[C@H](NC(=O)CC[C@H](NC(=O)CC[C@H](NC(=O)CCCCCCCCCCCCCCCCCCC(=O)O)C(=O)O)C(=O)O)C(=O)O)C(=O)O)CC1)C(=O)N[C@@H](CCN)C(=O)N(C)[C@@H](C)C(=O)N[C@@H](CCCNC(=N)N)C(=O)NCC(N)=O) [C20DA-gGlu4-Sar15-AEPipAc-Tyr-Phe-NMeLeu-Nle-Dbu-NMeAla-Arg-Gly-NH2] | > 1000 nM
4 | EEEXXXXXXXXXXXXXXXXYFLXXARG (HELM PEPTIDE1{[O=C(O)CCCCCCCCCCCCCCCCC(=O)[*:2]].[gGlu].[gGlu].[gGlu].[Sar].[Sar].[Sar].[Sar].[Sar].[Sar].[Sar].[Sar].[Sar].[Sar].[Sar].[Sar].[Sar].[Sar].[Sar].[O=C(CN1CCN([*:1])CC1)[*:2]].Y.F.[meL].[Nle].[Dab].[meA].R.G.[am]}$$$$V2.0; SMILES CCCC[C@H](NC(=O)[C@H](CC(C)C)N(C)C(=O)[C@H](Cc1ccccc1)NC(=O)[C@H](Cc1ccc(O)cc1)NC(=O)CN1CCN(C(=O)CN(C)C(=O)CN(C)C(=O)CN(C)C(=O)CN(C)C(=O)CN(C)C(=O)CN(C)C(=O)CN(C)C(=O)CN(C)C(=O)CN(C)C(=O)CN(C)C(=O)CN(C)C(=O)CN(C)C(=O)CN(C)C(=O)CN(C)C(=O)CN(C)C(=O)CC[C@H](NC(=O)CC[C@H](NC(=O)CC[C@H](NC(=O)CCCCCCCCCCCCCCCCC(=O)O)C(=O)O)C(=O)O)C(=O)O)CC1)C(=O)N[C@@H](CCN)C(=O)N(C)[C@@H](C)C(=O)N[C@@H](CCCNC(=N)N)C(=O)NCC(N)=O) [C18DA-gGlu3-Sar15-PipAc-Tyr-Phe-NMeLeu-Nle-Dbu-NMeAla-Arg-Gly-NH2] | > 1000 nM
5 | EEEXXXXXXXXXXXXXYFLXRPRG (HELM PEPTIDE1{[O=C(O)CCCCCCCCCCCCCCCCCCC(=O)[*:2]].[gGlu].[gGlu].[gGlu].[Sar].[Sar].[Sar].[Sar].[Sar].[Sar].[Sar].[Sar].[Sar].[Sar].[Sar].[Sar].[O=C(CN1CCN([*:1])CC1)[*:2]].Y.F.[meL].[Nle].R.P.R.G.[am]}$$$$V2.0; SMILES CCCC[C@H](NC(=O)[C@H](CC(C)C)N(C)C(=O)[C@H](Cc1ccccc1)NC(=O)[C@H](Cc1ccc(O)cc1)NC(=O)CN1CCN(C(=O)CN(C)C(=O)CN(C)C(=O)CN(C)C(=O)CN(C)C(=O)CN(C)C(=O)CN(C)C(=O)CN(C)C(=O)CN(C)C(=O)CN(C)C(=O)CN(C)C(=O)CN(C)C(=O)CN(C)C(=O)CC[C@H](NC(=O)CC[C@H](NC(=O)CC[C@H](NC(=O)CCCCCCCCCCCCCCCCCCC(=O)O)C(=O)O)C(=O)O)C(=O)O)CC1)C(=O)N[C@@H](CCCNC(=N)N)C(=O)N1CCC[C@H]1C(=O)N[C@@H](CCCNC(=N)N)C(=O)NCC(N)=O) [C20DA-gGlu3-Sar12-PipAc-Tyr-Phe-NMeLeu-Nle-Arg-Pro-Arg-Gly-NH2] | 72 nM

Other lines, results leading:

Row | EC50 (hNMUR1) buffer | Binder
6 | 220 nM | EEEEXXXXXXXXXXXXXYFLXRPRG (HELM PEPTIDE1{[O=C(O)CCCCCCCCCCCCCCCCC(=O)[*:2]].[gGlu].[gGlu].[gGlu].[gGlu].[Sar].[Sar].[Sar].[Sar].[Sar].[Sar].[Sar].[Sar].[Sar].[Sar].[Sar].[Sar].[O=C(CN1CCN(CCN[*:1])CC1)[*:2]].Y.F.[meL].[Nle].R.P.R.G.[am]}$$$$V2.0; SMILES CCCC[C@H](NC(=O)[C@H](CC(C)C)N(C)C(=O)[C@H](Cc1ccccc1)NC(=O)[C@H](Cc1ccc(O)cc1)NC(=O)CN1CCN(CCNC(=O)CN(C)C(=O)CN(C)C(=O)CN(C)C(=O)CN(C)C(=O)CN(C)C(=O)CN(C)C(=O)CN(C)C(=O)CN(C)C(=O)CN(C)C(=O)CN(C)C(=O)CN(C)C(=O)CN(C)C(=O)CC[C@H](NC(=O)CC[C@H](NC(=O)CC[C@H](NC(=O)CC[C@H](NC(=O)CCCCCCCCCCCCCCCCC(=O)O)C(=O)O)C(=O)O)C(=O)O)C(=O)O)CC1)C(=O)N[C@@H](CCCNC(=N)N)C(=O)N1CCC[C@H]1C(=O)N[C@@H](CCCNC(=N)N)C(=O)NCC(N)=O) [C18DA-gGlu4-Sar12-AEPipAc-Tyr-Phe-NMeLeu-Nle-Arg-Pro-Arg-Gly-NH2]
7 | 1200 nM | EEEEXXXXXXXXXXXXXYFLXXARG (HELM PEPTIDE1{[O=C(O)CCCCCCCCCCCCCCCCCCC(=O)[*:2]].[gGlu].[gGlu].[gGlu].[gGlu].[Sar].[Sar].[Sar].[Sar].[Sar].[Sar].[Sar].[Sar].[Sar].[Sar].[Sar].[Sar].[O=C(CN1CCN(CCN[*:1])CC1)[*:2]].Y.F.[meL].[Nle].[Orn].[meA].R.G.[am]}$$$$V2.0; SMILES CCCC[C@H](NC(=O)[C@H](CC(C)C)N(C)C(=O)[C@H](Cc1ccccc1)NC(=O)[C@H](Cc1ccc(O)cc1)NC(=O)CN1CCN(CCNC(=O)CN(C)C(=O)CN(C)C(=O)CN(C)C(=O)CN(C)C(=O)CN(C)C(=O)CN(C)C(=O)CN(C)C(=O)CN(C)C(=O)CN(C)C(=O)CN(C)C(=O)CN(C)C(=O)CN(C)C(=O)CC[C@H](NC(=O)CC[C@H](NC(=O)CC[C@H](NC(=O)CC[C@H](NC(=O)CCCCCCCCCCCCCCCCCCC(=O)O)C(=O)O)C(=O)O)C(=O)O)C(=O)O)CC1)C(=O)N[C@@H](CCCN)C(=O)N(C)[C@@H](C)C(=O)N[C@@H](CCCNC(=N)N)C(=O)NCC(N)=O) [C20DA-gGlu4-Sar12-AEPipAc-Tyr-Phe-NMeLeu-Nle-Orn-NMeAla-Arg-Gly-NH2]
8 | 1400 nM | EEEEXXXXXXXXXXXXXXXXYFLXXARG (HELM PEPTIDE1{[O=C(O)CCCCCCCCCCCCCCCCCCC(=O)[*:2]].[gGlu].[gGlu].[gGlu].[gGlu].[Sar].[Sar].[Sar].[Sar].[Sar].[Sar].[Sar].[Sar].[Sar].[Sar].[Sar].[Sar].[Sar].[Sar].[Sar].[O=C(CN1CCN(CCN[*:1])CC1)[*:2]].Y.F.[meL].[Nle].[Orn].[meA].R.G.[am]}$$$$V2.0; SMILES CCCC[C@H](NC(=O)[C@H](CC(C)C)N(C)C(=O)[C@H](Cc1ccccc1)NC(=O)[C@H](Cc1ccc(O)cc1)NC(=O)CN1CCN(CCNC(=O)CN(C)C(=O)CN(C)C(=O)CN(C)C(=O)CN(C)C(=O)CN(C)C(=O)CN(C)C(=O)CN(C)C(=O)CN(C)C(=O)CN(C)C(=O)CN(C)C(=O)CN(C)C(=O)CN(C)C(=O)CN(C)C(=O)CN(C)C(=O)CN(C)C(=O)CC[C@H](NC(=O)CC[C@H](NC(=O)CC[C@H](NC(=O)CC[C@H](NC(=O)CCCCCCCCCCCCCCCCCCC(=O)O)C(=O)O)C(=O)O)C(=O)O)C(=O)O)CC1)C(=O)N[C@@H](CCCN)C(=O)N(C)[C@@H](C)C(=O)N[C@@H](CCCNC(=N)N)C(=O)NCC(N)=O) [C20DA-gGlu4-Sar15-AEPipAc-Tyr-Phe-NMeLeu-Nle-Orn-NMeAla-Arg-Gly-NH2]

From patent US20240279278A1, “NMU RECEPTOR 2 AGONISTS” (Boehringer Ingelheim International GmbH, priority 2023, published 2024)
